From patent US20040170622A1, “Methods and compositions for modulating XBP-1 activity” (President and Fellows of Harvard College, priority 2002, published 2004)

Tests used:
IL-6 = IL-6 production by retrovirally transduced wt and XBP-1-/- B cells (ELISA, Northern blot); type: cell-based, murine; settings: wild type and XBP-1-/- cells
Method: (§1) Assays to measure immunoglobulin or cytokine levels in culture supernatants were performed as described (e.g., Hodge et al., 1996 Immunity. 4:397-405 or Science. 1996 274:1903-5).
(§2) The XBP-1 cDNAs for the unspliced (XBP-1u/s) and the spliced (XBP-1s) forms were PCR-amplified from the total RNA of untreated and tunicamycin treated NIH3T3 cells, respectively, with a primer set (5′-[…]-3′ (SEQ ID NO: 7) and 5′-[…]-3′) (SEQ ID NO: 8). XBP-1u form was generated by a PCR-based mutagenesis from XBP-unspliced/s cDNA so that the two G residues at position 532 and 535 were changed to A without changing amino acid sequences in the XBP-1u open reading frame. Numbers are based on the sequences from gene bank database (NM_013842 [gi:13775155]). These XBP-1 cDNAs were inserted into the GFP-RV retroviral vector by using blunt end ligation (Sambrook et al., 1989). EFFECTENE transfection (Quiagen) was used to introduce the DNA into the Phoenix cell line as described by manufacturer (e.g., Reimold et al., 2001 Nature. 412:300-7 or Int Immunol. 2001 13:241-8). Viral supernatants were harvested after 48 hours and frozen at −80° C. for later use. B cells were purified from mouse spleens using CD43 depletion or positive selection with B220+ magnetic beads as described by the manufacturer (MidiMacs, Miltenyi Biotech). B cell purity was generally near 95% as confirmed by flow cytometry. The B cells (10^6 cells /ml) were then activated in culture with LPS 10 μg/ml and F (ab′)2 anti-IgM (5 μg/ml Southern Biotechnology Associates Inc.) for 24 hours. The 1 ml of activated B cells (10^6 cells/ml) were mixed with 4 μg of polybrene and 1 ml of virus-containing supernatant and spun at 1000 g for 45 minutes at 24° C. Cells were incubated for 24-36 h at 37° C. and then GFP+ cells were flow sorted and returned to culture with and without stimulation.
In human multiple myeloma cells, XBP-1 was induced by IL-6 treatment and implicated in the proliferation of malignant plasma cells (Wen et al., 1999). However, no role for IL-6 in upregulating XBP-1 transcripts or in mediating splicing of XBP-1 RNA in mature B cells has been described (FIG. 6A). The ability of XBP-1 to induce IL-6 production in wt and XBP-1^−/− primary B cells was tested. As described above, in vitro activated murine splenic B cells were transduced using retroviruses expressing bicistronic mRNA for XBP-1u/s, XBP-1s, XBP-1u and control GFP. After cell sorting, GFP^+ cells were stimulated with LPS and assayed for cytokine production after 72 h. In FIG. 6 panel (A) purified B cells from wt and XBP-1^−/− mice were activated in culture with LPS 10 μg/ml and F(ab′)2 anti-IgM (5 μg/ml ) for 24 hours. Retroviral transduction with GFP alone (GFP-Rv), XBP-1u/s (XBP-1 u/s GFP Rv), XBP-1s (XBP-1s GFP Rv) or XBP-1u (XBP-1u GFP Rv) of activated B cells was performed. Cells were incubated for 24-36 h at 37° C. and then GFP+ cells were flow sorted and then returned to culture with LPS stimulation (10 μg/ml) for 72 h. Cytokine production was analyzed by ELISA from culture supernatants of stimulated B cells. Experiments were done at least three times and standard deviation is shown. In panel (B) Total RNAs were prepared from stimulated B cells above and XBP-1 mRNA levels were determined by Northern blot analysis with γ-actin control

XBP-1s = experiment: UPRE-luciferase reporter in NIH3T3 cells; type: cell-based
Method: (A) Ubiquitination of XBP-1 in HeLa cells were cotransfected with XBP-1u and His-tagged ubiquitin expression plasmids. (B) Degradation rates of XBP-1u and XBP-1s proteins were determined by pulse labeling J558 cells with ^35S Met/Cys for 1 hr and chasing for the indicated times. (C) Effect of XBP-1u on XBP-1s dependent UPRE activation in PI-treated NIH3T3 cells with 8-fold excess of XBP-1u plasmids. Transfected cells were treated with MG-132 for 16 hrs before harvesting for luciferase assays. Values represent fold induction of activity compared to the reporter alone after normalizing to Renilla. (D) Generation and expression of lysine to arginine XBP-1u mutants. Two or three lysine residues in the C-terminus of XBP-1u were replaced by arginine to generate XBP-1uKK (235, 252) and XBP-1uKKK(146, 235, 252) by site-directed mutagenesis. dn-XBP contains the N-terminal 188 aa of XBP-1u. Western blot analysis was performed with NIH3T3 extracts transfected with the indicated plasmids. E) Inhibition of XBP-1 dependent activation of the UPRE reporter in NIH 3T3 cells by XBP-1u lysine to arginine mutants.
Two or three lysine residues in the C-terminus of XBP-1u were replaced by arginines to generate XBP-1uKK (K235R, K252R) and XBP-1uKKK(K146R, K235R, K252R) by site-directed mutagenesis (Iwakoshi et al.2003 Nature Immunology 4: 321-329). dn-XBP contains the N-terminal 188 aa of XBP-1u. NTH3T3 cells were transfected by using the Lipofectamine2000 reagent as recommended by the manufacturer (Invitrogen, Carlsbad, Calif.) with indicated amount of UPRE (UPR element) reporter (Wang et al. 2000 J Biol Chem 275: 27013-27020) and various effector plasmids. Cells were treated for 16 hours before harvest in certain experiments. Cells were lysed in passive lysis buffer for dual luciferase assays according to the manufacturer's protocol (Promega, Madison, Wis.).

XBP-1 = experiment: XBP-luciferase reporter in NIH3T3 cells; type: cell-based; settings: in the presence of 5 uM MG-132; with unspliced XBP-1 (41.9 without)
Method: The fold induction of luciferase was measured in NIH3T3 cells bearing XBP-luciferase. The constructs included four copies of the XBP-1 target sequence TGGATGACGTGTACA (SEQ ID NO: 9) fused to the minimal promoter of the mouse RANTES gene (Clauss et al. Nucleic Acids Research 1996. 24:1855) or five copies of the ATF6/XBP-1 target […] (SEQ ID NO: 10) and comprising −53/+45 of the cfos promoter (J. Biol. Chem. 275:27013). In the presence of 5 uM MG-132, the presence of unspliced XBP-1 inhibits the fold induction of luciferase from 41.9 to 5.8. Thus, in the presence of proteasome inhibitors, the unspliced protein blocks the function of the spliced protein.

XBP-1^−/− B cells = experiment: Ig production by retrovirally transduced XBP-1-/- primary B cells (ELISA); type: cell-based, mouse; settings: LPS 10 μg/ml 72 h
Method: as §1, §2
The effects of these three different forms of XBP-1 on Ig secretion were compared in wild type and XBP-1^−/− B cells. In vitro activated splenic B cells were transduced using retroviruses expressing bicistronic mRNA encoding XBP-1u/s, XBP-1s, XBP-1u or control GFP. In FIGS. 5(A) and (B) purified B cells from wt and XBP-1^−/− mice were activated in culture with LPS 10 μg/ml and F (ab′)2 anti-IgM (5 μg/ml) for 24 hours. Retroviral transduction with GFP alone (GFP-Rv), XBP-1u/s (XBP-1u/s GFP Rv), XBP-1s (XBP-1s GFP Rv) or XBP-1u (XBP-1u GFP Rv) of activated B cells was performed. Cells were incubated for 24-36 h at 37° C. and then GFP+ cells were flow sorted and then returned to culture with LPS stimulation (10 μg/ml) for 72 h. IgM panel(A) and IgG2b panel (B) production analyzed by ELISA from culture supernatants of stimulated B cells. Experiments were done at least three times and standard deviation is shown.

B1: XBP-1u: murine XBP-1 with point mutations at loop positions −1 and +3; yields only unspliced 33 K protein (protein)
chain: MVVVAAAPSAATAAPKVLLLSGQPASGGRALPLMVPGPRAAGSEASGTPQARKRQRLTHLSPEEKALRRKLKNRVAAQTARDRKKARMSELEQQVVDLEEENHKLQLENQLLREKTHGLVVENQELRTRLGMDTLDPDEVPEVEAKGSGVRLVAGSAESAALRLCAPLQQVQAQLSPPQNIFPWTLTLLPLQILSLISFWAFWTSWTLSCFSNVLPQSLLVWRNSQRSTQKDLVPYQPPFLCQWGPHQPSWKPLMNSFVLTMYTPSL
IL-6
  IL-6 amounts expressed: moderate amounts of IL-6
XBP-1s; in the absence of treatment
  UPRE reporter activity: but not XBP-1u, greatly increased reporter activity
XBP-1s; in the presence of MG-132, 16 hrs, 8-fold excess of XBP-1u plasmid
  effect on transactivation of UPRE reporter by XBP-1s: significantly suppressed transactivation of the reporter by XBP-1s
XBP-1
  fold induction of luciferase: 5.8
XBP-1^−/− B cells
  secretion of IgG2b compared to control cells: unable to increase IgG secretion
  secretion of IgM compared to control cells: unable to increase IgM secretion
